# Data as given in PMC2685691 (The Journal of Biological Chemistry, 2009).
# Values joined by “and” are separate entries in the source; they are usually repeats but may differ in a detail not shown here. Equal entries are not always repeated.
# B1: β3-integrin tail (domain or fragment)
# chain: KLLITIHDRKEFAKFEEERARAKWDTANNPLYKEATSTFTNITYRGT
# B2: talin F3 FERM subdomain (residues 309–400) (domain or fragment)
# chain: GVSFFLVKEKMKGKNKLVPRLLGITKECVMRVDEKTKEVIQEWSLTNIKRWAASPKSFTLDFGDYQDGYYSVQTTEGEQIAQLIAGYIDIIL
# Columns and labels:
# Assay in all cases: NMR titration
# β3-integrin tail = β3-integrin tail (UniProt P05106)
# talin F3 K324D (mouse) = talin F3 K324D (mouse) (UniProt P26039)
# talin F3 Y377A (mouse) = talin F3 Y377A (mouse) (UniProt P26039)
# [1] = target: U-15N-labeled talin F3 (309–405) (mouse, UniProt P26039 309-405)
# Sequence of U-15N-labeled talin F3 (309–405) (P26039 309-405): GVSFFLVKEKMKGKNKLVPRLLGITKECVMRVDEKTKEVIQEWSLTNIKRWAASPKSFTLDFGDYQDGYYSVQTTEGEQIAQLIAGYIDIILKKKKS
# talin 1655–1822 T1767A = talin 1655–1822 T1767A (mouse, UniProt P26039 1655-1822, T1767A)
# Sequence of talin 1655–1822 T1767A (P26039 1655-1822 T1767A): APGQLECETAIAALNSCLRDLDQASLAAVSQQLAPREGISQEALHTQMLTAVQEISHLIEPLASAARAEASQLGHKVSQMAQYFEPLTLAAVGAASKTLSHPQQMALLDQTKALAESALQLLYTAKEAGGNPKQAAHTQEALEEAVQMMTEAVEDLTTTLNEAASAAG
# [2] = target: talin 1655–1822 rod domain (mouse, UniProt P26039 1655-1822)
# Sequence of talin 1655–1822 rod domain (mouse, UniProt P26039 1655-1822) (P26039 1655-1822): as the sequence (P26039 1655-1822 T1767A) above, with A113T counted along it
# talin 1655–1822 S1684D = talin 1655–1822 S1684D (mouse, UniProt P26039 1655-1822, S1684D)
# Sequence of talin 1655–1822 S1684D (P26039 1655-1822 S1684D): as the sequence (P26039 1655-1822 T1767A) above, with S30D, A113T counted along it
# talin 1655–1822 Y1777A = talin 1655–1822 Y1777A (mouse, UniProt P26039 1655-1822, Y1777A)
# Sequence of talin 1655–1822 Y1777A (P26039 1655-1822 Y1777A): as the sequence (P26039 1655-1822 T1767A) above, with A113T, Y123A counted along it
# talin 1655–1822 Q1764A = talin 1655–1822 Q1764A (mouse, UniProt P26039 1655-1822, Q1764A)
# Sequence of talin 1655–1822 Q1764A (P26039 1655-1822 Q1764A): as the sequence (P26039 1655-1822 T1767A) above, with Q110A, A113T counted along it
molecule,measurement,setting,value
M319A F3 mutant (from UniProt P26039 309-405) (domain or fragment),Kd,β3-integrin tail,225 µM
talin 1655–1822 rod domain (from UniProt P26039 1655-1822) (domain or fragment),fold decrease in affinity against wild-type F3,talin F3 K324D (mouse),23 fold
same,fold decrease in binding affinity against wild-type F3,talin F3 Y377A (mouse),5 fold
B1,Kd,[1],273 ± 6 µM
B2,binding result,talin 1655–1822 T1767A,binds
same,Kd,[2],11 µM and 9 µM
same,binding result,talin 1655–1822 S1684D,binds
same,binding result,talin 1655–1822 Y1777A,binds
same,binding result,talin 1655–1822 Q1764A,binds
